According to patent US12099068B2, “Biomarkers for graft-versus-host disease” (Incyte Corporation, priority 2018, dated 2024):

Test system: plasma proteins
Assay: Plasma proteins modulated between baseline and day 28 in responders (CR, VGPR, PR; n = 19), Example 6 (Table 13)
Assay type: in vivo, human
Conditions: plasma protein (OLINK NPX); responders (CR, VGPR, PR; n = 19); itacitinib 200 mg or 300 mg QD with corticosteroids; day 28 vs baseline
Procedure, shortened: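 Plasma at baseline/screening and day 28 profiled for >1000 proteins by OLINK proximity extension assay, reported as NPX (log2). Steroid-naive and steroid-refractory patients pooled. Paired and unpaired t tests, ANOVA and Pearson correlation applied; significance at P<0.05.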

B1: CD93 (protein, UniProt Q9NPY3 22-652, looked up)
Complement component C1q …: TGADTEAVVCVGTACYTAHSGKLSAAEAQNHCNQNGGNLATVKSKEEAQHVQRVLAQLLRREAALTARMSKFWIGLQREKGKCLDPSLPLKGFSWVGGGEDTPYSNWHKELRNSCISKRCVSLLLDLSQPLLPSRLPKWSEGPCGSPGSPGSNIEGFVCKFSFKGMCRPLALGGPGQVTYTTPFQTTSSSLEAVPFASAANVACGEGDKDETQSHYFLCKEKAPDVFDWGSSGPLCVSPKYGCNFNNGGCHQDCFEGGDGSFLCGCRPGFRLLDDLVTCASRNPCSSSPCRGGATCVLGPHGKNYTCRCPQGYQLDSSQLDCVDVDECQDSPCAQECVNTPGGFRCECWVGYEPGGPGEGACQDVDECALGRSPCAQGCTNTDGSFHCSCEEGYVLAGEDGTQCQDVDECVGPGGPLCDSLCFNTQGSFHCGCLPGWVLAPNGVSCTMGPVSLGPPSGPPDEEDKGEKEGSTVPRAATASPTRGPEGTPKATPTTSRPSLSSDAPITSAPLKMLAPSGSPGVWREPSIHHATAASGPQEPAGGDSSVATQNNDGTDGQKLLLFYILGTVVAILLLLALALGLLVYRKRRAKREEKKEKKPQNAADSYSWVPERAESRAMENQYSPTPGTDC
  Fold Change, Decreased Expression from Baseline to Day 28: −1.3029

B2: FCGR2A (protein, UniProt P12318 34-317, looked up)
Low affinity immunoglobulin …: QAAAPPKAVLKLEPPWINVLQEDSVTLTCQGARSPESDSIQWFHNGNLIPTHTQPSYRFKANNNDSGEYTCQTGQTSLSDPVHLTVLSEWLVLQTPHLEFQEGETIMLRCHSWKDKPLVKVTFFQNGKSQKFSHLDPTFSIPQANHSHSGDYHCTGNIGYTLFSSKPVTITVQVPSMGSSSPMGIIVAVVIATAVAAIVAAVVALIYCRKKRISANSTDPVKAAQFEPPGRQMIAIRKRQLEETNNDYETADGGYMTLNPRAPTDDDKNIYLTLPPNDHVNSNN
  Fold Change, Decreased Expression from Baseline to Day 28: −1.5278

B3: GPNMB (protein, UniProt Q14956 23-572, looked up)
Transmembrane glycoprotein NMB: KRFHDVLGNERPSAYMREHNQLNGWSSDENDWNEKLYPVWKRGDMRWKNSWKGGRVQAVLTSDSPALVGSNITFAVNLIFPRCQKEDANGNIVYEKNCRNEAGLSADPYVYNWTAWSEDSDGENGTGQSHHNVFPDGKPFPHHPGWRRWNFIYVFHTLGQYFQKLGRCSVRVSVNTANVTLGPQLMEVTVYRRHGRAYVPIAQVKDVYVVTDQIPVFVTMFQKNDRNSSDETFLKDLPIMFDVLIHDPSHFLNYSTINYKWSFGDNTGLFVSTNHTVNHTYVLNGTFSLNLTVKAAAPGPCPPPPPPPRPSKPTPSLATTLKSYDSNTPGPAGDNPLELSRIPDENCQINRYGHFQATITIVEGILEVNIIQMTDVLMPVPWPESSLIDFVVTCQGSIPTEVCTIISDPTCEITQNTVCSPVDVDEMCLLTVRRTFNGSGTYCVNLTLGDDTSLALTSTLISVPDRDPASPLRMANSALISVGCLAIFVTVISLLVYKKHKEYNPIENSPGNVVRSKGLSVFLNRAKAVFFPGNQEKDPLLKNQEFKGVS
  Fold Change, Increased Expression from Baseline to Day 28: 1.2117

B4: ITGB5 (protein, UniProt P18084 24-799, looked up)
Integrin beta-5: GLNICTSGSATSCEECLLIHPKCAWCSKEDFGSPRSITSRCDLRANLVKNGCGGEIESPASSFHVLRSLPLSSKGSGSAGWDVIQMTPQEIAVNLRPGDKTTFQLQVRQVEDYPVDLYYLMDLSLSMKDDLDNIRSLGTKLAEEMRKLTSNFRLGFGSFVDKDISPFSYTAPRYQTNPCIGYKLFPNCVPSFGFRHLLPLTDRVDSFNEEVRKQRVSRNRDAPEGGFDAVLQAAVCKEKIGWRKDALHLLVFTTDDVPHIALDGKLGGLVQPHDGQCHLNEANEYTASNQMDYPSLALLGEKLAENNINLIFAVTKNHYMLYKNFTALIPGTTVEILDGDSKNIIQLIINAYNSIRSKVELSVWDQPEDLNLFFTATCQDGVSYPGQRKCEGLKIGDTASFEVSLEARSCPSRHTEHVFALRPVGFRDSLEVGVTYNCTCGCSVGLEPNSARCNGSGTYVCGLCECSPGYLGTRCECQDGENQSVYQNLCREAEGKPLCSGRGDCSCNQCSCFESEFGKIYGPFCECDNFSCARNKGVLCSGHGECHCGECKCHAGYIGDNCNCSTDISTCRGRDGQICSERGHCLCGQCQCTEPGAFGEMCEKCPTCPDACSTKRDCVECLLLHSGKPDNQTCHSLCRDEVITWVDTIVKDDQEAVLCFYKTAKDCVMMFTYVELPSGKSNLTVLREPECGNTPNAMTILLAVVGSILLVGLALLAIWKLLVTIHDRREFAKFQSERSRARYEMASNPLYRKPISTHTVDFTFNKFNKSYNGTVD
  Fold Change, Increased Expression from Baseline to Day 28: 1.229

B5: IRF9 (protein, UniProt Q00978 1-393, looked up)
Interferon regulatory factor 9: MASGRARCTRKLRNWVVEQVESGQFPGVCWDDTAKTMFRIPWKHAGKQDFREDQDAAFFKAWAIFKGKYKEGDTGGPAVWKTRLRCALNKSSEFKEVPERGRMDVAEPYKVYQLLPPGIVSGQPGTQKVPSKRQHSSVSSERKEEEDAMQNCTLSPSVLQDSLNNEEEGASGGAVHSDIGSSSSSSSPEPQEVTDTTEAPFQGDQRSLEFLLPPEPDYSLLLTFIYNGRVVGEAQVQSLDCRLVAEPSGSESSMEQVLFPKPGPLEPTQRLLSQLERGILVASNPRGLFVQRLCPIPISWNAPQAPPGPGPHLLPSNECVELFRTAYFCRDLVRYFQGLGPPPKFQVTLNFWEESHGSSHTPQNLITVKMEQAFARYLLEQTPEQQAAILSLV
  Fold Change, Decreased Expression from Baseline to Day 28: −1.4384

B6: GT (protein, UniProt P51161 2-128, looked up)
Gastrotropin: AFTGKFEMESEKNYDEFMKLLGISSDVIEKARNFKIVTEVQQDGQDFTWSQHYSGGHTMTNKFTVGKESNIQTMGGKTFKATVQMEGGKLVVNFPNYHQTSEIVGDKLVEVSTIGGVTYERVSKRLA
  Fold Change, Increased Expression from Baseline to Day 28: 1.8699

B7: APLP1 (protein, UniProt P51693 39-650, looked up)
Amyloid beta precursor like …: SLAGGSPGAAEAPGSAQVAGLCGRLTLHRDLRTGRWEPDPQRSRRCLRDPQRVLEYCRQMYPELQIARVEQATQAIPMERWCGGSRSGSCAHPHHQVVPFRCLPGEFVSEALLVPEGCRFLHQERMDQCESSTRRHQEAQEACSSQGLILHGSGMLLPCGSDRFRGVEYVCCPPPGTPDPSGTAVGDPSTRSWPPGSRVEGAEDEEEEESFPQPVDDYFVEPPQAEEEEETVPPPSSHTLAVVGKVTPTPRPTDGVDIYFGMPGEISEHEGFLRAKMDLEERRMRQINEVMREWAMADNQSKNLPKADRQALNEHFQSILQTLEEQVSGERQRLVETHATRVIALINDQRRAALEGFLAALQADPPQAERVLLALRRYLRAEQKEQRHTLRHYQHVAAVDPEKAQQMRFQVHTHLQVIEERVNQSLGLLDQNPHLAQELRPQIQELLHSEHLGPSELEAPAPGGSSEDKGGLQPPDSKDDTPMTLPKGSTEQDAASPEKEKMNPLEQYERKVNASVPRGFPFHSSEIQRDELAPAGTGVSREAVSGLLIMGAGGGSLIVLSMLLLRRKKPYGAISHGVVEVDPMLTLEEQQLRELQRHGYENPTYRFLEERP
  Fold Change, Increased Expression from Baseline to Day 28: 1.4933

B8: CD84 (protein, UniProt Q9UIB8 22-345, looked up)
SLAM family member 5: KDSEIFTVNGILGESVTFPVNIQEPRQVKIIAWTSKTSVAYVTPGDSETAPVVTVTHRNYYERIHALGPNYNLVISDLRMEDAGDYKADINTQADPYTTTKRYNLQIYRRLGKPKITQSLMASVNSTCNVTLTCSVEKEEKNVTYNWSPLGEEGNVLQIFQTPEDQELTYTCTAQNPVSNNSDSISARQLCADIAMGFRTHHTGLLSVLAMFFLLVLILSSVFLFRLFKRRQGRIFPEGSCLNTFTKNPYAASKKTIYTYIMASRNTQPAESRIYDEILQSKVLPSKEEPVNTVYSEVQFADKMGKASTQDSKPPGTSSYEIVI
  Fold Change, Decreased Expression from Baseline to Day 28: −1.7208

B9: TACSTD2 (protein, UniProt P09758 27-323, looked up)
Tumor-associated calcium …: HTAAQDNCTCPTNKMTVCSPDGPGGRCQCRALGSGMAVDCSTLTSKCLLLKARMSAPKNARTLVRPSEHALVDNDGLYDPDCDPEGRFKARQCNQTSVCWCVNSVGVRRTDKGDLSLRCDELVRTHHILIDLRHRPTAGAFNHSDLDAELRRLFRERYRLHPKFVAAVHYEQPTIQIELRQNTSQKAAGDVDIGDAAYYFERDIKGESLFQGRGGLDLRVRGEPLQVERTLIYYLDEIPPKFSMKRLTAGLIAVIVVVVVALVAGMAVLVITNRRKSGKYKKVEIKELGELRKEPSL
  Fold Change, Increased Expression from Baseline to Day 28: 1.1931

B10: STX8 (protein, UniProt Q9UNK0 1-236, looked up)
Syntaxin-8: MAPDPWFSTYDSTCQIAQEIAEKIQQRNQYERKGEKAPKLTVTIRALLQNLKEKIALLKDLLLRAVSTHQITQLEGDRRQNLLDDLVTRERLLLASFKNEGAEPDLIRSSLMSEEAKRGAPNPWLFEEPEETRGLGFDEIRQQQQKIIQEQDAGLDALSSIISRQKQMGQEIGNELDEQNEIIDDLANLVENTDEKLRNETRRVNMVDRKSASCGMIMVILLLLVAIVVVAVWPTN
  Fold Change, Decreased Expression from Baseline to Day 28: −1.4796

B11: NINJ1 (protein, UniProt Q92982 1-152, looked up)
Ninjurin-1: MDSGTEEYELNGGLPPGTPGSPDASPARWGWRHGPINVNHYASKKSAAESMLDIALLMANASQLKAVVEQGPSFAFYVPLVVLISISLVLQIGVGVLLIFLVKYDLNNPAKHAKLDFLNNLATGLVFIIVVVNIFITAFGVQKPLMDMAPQQ
  Fold Change, Increased Expression from Baseline to Day 28: 1.2723

B12: LY9 (protein, UniProt Q9HBG7 48-655, looked up)
T-lymphocyte surface antigen …: KDSAPTVVSGILGGSVTLPLNISVDTEIENVIWIGPKNALAFARPKENVTIMVKSYLGRLDITKWSYSLCISNLTLNDAGSYKAQINQRNFEVTTEEEFTLFVYEQLQEPQVTMKSVKVSENFSCNITLMCSVKGAEKSVLYSWTPREPHASESNGGSILTVSRTPCDPDLPYICTAQNPVSQRSSLPVHVGQFCTDPGASRGGTTGETVVGVLGEPVTLPLALPACRDTEKVVWLFNTSIISKEREEAATADPLIKSRDPYKNRVWVSSQDCSLKISQLKIEDAGPYHAYVCSEASSVTSMTHVTLLIYRRLRKPKITWSLRHSEDGICRISLTCSVEDGGNTVMYTWTPLQKEAVVSQGESHLNVSWRSSENHPNLTCTASNPVSRSSHQFLSENICSGPERNTKLWIGLFLMVCLLCVGIFSWCIWKRKGRCSVPAFCSSQAEAPADTPEPTAGHTLYSVLSQGYEKLDTPLRPARQQPTPTSDSSSDSNLTTEEDEDRPEVHKPISGRYEVFDQVTQEGAGHDPAPEGQADYDPVTPYVTEVESVVGENTMYAQVFNLQGKTPVSQKEESSATIYCSIRKPQVVPPPQQNDLEIPESPTYENFT
  Fold Change, Decreased Expression from Baseline to Day 28: −1.4447

B13: REN (protein, UniProt P00797 67-406, looked up)
Renin: LTLGNTTSSVILTNYMDTQYYGEIGIGTPPQTFKVVFDTGSSNVWVPSSKCSRLYTACVYHKLFDASDSSSYKHNGTELTLRYSTGTVSGFLSQDIITVGGITVTQMFGEVTEMPALPFMLAEFDGVVGMGFIEQAIGRVTPIFDNIISQGVLKEDVFSFYYNRDSENSQSLGGQIVLGGSDPQHYEGNFHYINLIKTGVWQIQMKGVSVGSSTLLCEDGCLALVDTGASYISGSTSSIEKLMEALGAKKRLFDYVVKCNEGPTLPDISFHLGGKEYTLTSADYVFQESYSSKKLCTLAIHAMDIPPPTGPTWALGATFIRKFYTEFDRRNNRIGFALAR
  Fold Change, Increased Expression from Baseline to Day 28: 1.4074
